# Target: SARS-CoV-2 Spike glycoprotein trimer immunogen (stabilized, soluble ectodomain) (SARS-CoV-2 | not stated) (UniProt P0DTC2)
# Assay: negative stain electron microscopy
substance,measurement,value
"SARS-CoV-2 Spike glycoprotein trimer immunogen (stabilized, soluble ectodomain) (from UniProt P0DTC2 14-1208)",stoichiometry N,3

# From paper PMC7443692
